17 molecules from US20220144956A1 (published 2022) can be followed below.

One may read the Kd as the free concentration of one partner at which half of the binding sites on the other are occupied at equilibrium, for simple one-to-one binding. Low values mean higher affinity, high ones lower affinity.

Residue numbers refer to the chain shown, from its start.

B1: XENP36169 H1.186 L1 (antibody, V domains shown)
VH: QLQVQESGPGLVKPSETLSLTCTVSGGSISESYFSWGWIRQPPGKGLEWIGSFYYGGKTYYNPSLKSRATISIDTSKNQFSLKLSSVTAADTAVYYCARGPTTIRGVIDSWGQGTLVTVSS
VL: EIVLTQSPATLSLSPGERATLSCRASQSVRSYLAWYQQKPGQAPRLLIYDASNRATGIPARFSGSGSGTDFTLTISSLEPEDFAVYYCQQRSNWPPTFGQGTKVEIK
B2: XENP36184 H1.201 L1 (antibody, V domains shown)
VH: B1 VH with E31N, S32A, T103L
VL: B1 VL
B3: H1 L1.2 XENP34565 (antibody, V domains shown)
VH: B1 VH with E31N, G57E, N78S, A98P, T103M
VL: B1 VL with A9G
B4: H1 L1.1 XENP34564 (antibody, V domains shown)
VH: B1 VH with E31N, G57E, N78S, A98P, T103M
VL: B1 VL with L4M
B5: H1.103 L1 XENP34559 (antibody, V domains shown)
VH: B1 VH with E31N, G57E, N78S, A98P, T103M, S110L
VL: B1 VL
B6: H1.102 L1 XENP34558 (antibody, V domains shown)
VH: B1 VH with E31N, G57E, N78S, A98P, T103M, S110H
VL: B1 VL
B7: H1.101 L1 XENP34557 (antibody, V domains shown)
VH: B1 VH with E31N, G57E, N78S, A98P, T103M, I108M
VL: B1 VL
B8: H1.98 L1 XENP34554 (antibody, V domains shown)
VH: B1 VH with E31N, G57E, N78S, A98P, T103M, V107A
VL: B1 VL
B9: H1.91 L1 XENP34547 (antibody, V domains shown)
VH: B1 VH with E31N, G57E, N78S, A98P, T103M, I104V
VL: B1 VL
B10: H1.107 L1 XENP34563 (antibody, V domains shown)
VH: B1 VH with E31N, G57E, N78S, A98P, T103M, L116T
VL: B1 VL
B11: H1.106 L1 XENP34562 (antibody, V domains shown)
VH: B1 VH with E31N, G57E, N78S, A98P, T103M, L116M
VL: B1 VL
B12: H1 L1.6 XENP34569 (antibody, V domains shown)
VH: B1 VH with E31N, G57E, N78S, A98P, T103M
VL: B1 VL with R24G
B13: H1 L1.7 XENP34570 (antibody, V domains shown)
VH: B1 VH with E31N, G57E, N78S, A98P, T103M
VL: B1 VL with S28G
B14: H1.90 L1 XENP34546 (antibody, V domains shown)
VH: B1 VH with E31N, G57E, N78S, A98P, T103M, I104N
VL: B1 VL
B15: H1.100 L1 XENP34556 (antibody, V domains shown)
VH: B1 VH with E31N, G57E, N78S, A98P, T103M, I108F
VL: B1 VL
B16: H1 L1.4 XENP34567 (antibody, V domains shown)
VH: B1 VH with E31N, G57E, N78S, A98P, T103M
VL: B1 VL with L13V
B17: H1.87 L1 XENP34543 (antibody, V domains shown)
VH: B1 VH with E31N, G57E, N78S, A98P, T103Q
VL: B1 VL

T1 sequence (P37173 23-166): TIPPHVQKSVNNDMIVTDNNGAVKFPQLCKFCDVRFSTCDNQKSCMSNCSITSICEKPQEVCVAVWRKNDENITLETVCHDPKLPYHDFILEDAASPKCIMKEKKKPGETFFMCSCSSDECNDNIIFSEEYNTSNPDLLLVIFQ

One experiment addresses T1, human TGFßRII (antigen of the Octet experiments) (human, UniProt P37173 23-166).
Experiment: not given
B1 returned a Kd of 10.1 nM. The same measure, in the same setting: to B2 belongs 5.27 nM.

The target of the next experiment is T1, human TGFßRII (antigen of the Octet …). As to the kind of experiment: BLI (Octet). (In BLI a coated tip is dipped into the sample, and binding shifts an interference pattern.)
Consider B3, for which the Kd turned out to be 0.361 nM. Turning to B4, binding was characterised by a dissociation constant (Kd) of 0.569 nM.

With B5, the Kd amounted to 0.16 nM.

On to B6, for which the Kd worked out at 0.139 nM. With B7, the Kd is 0.492 nM. On the same count and under the same terms, to B8 belongs 0.761 nM; to B9, 0.512 nM. The molecule B10 showed a Kd of 0.109 nM. Still for that read-out and setting: to B11 belongs 0.624 nM; to B12, 2.24 nM; to B13, 0.315 nM. Same read-out and setting: the result for B14 reads 0.0747 nM. On the same count and under the same terms, the result for B15 reads 0.898 nM; that for B16, 0.601 nM. As to B17, the Kd came to 1.58 nM.
